Data from the supplement of paper PMC11246515.
± gives the standard deviation of the averaged measurements.

Experiment: total protein half-life in vivo (active degradation + dilution); higher = more stable protein
[1] = E. coli NCM3722 delta-clpP delta-lon delta-hslV, growth: N-lim chemostat, doubling time 6 h
[2] = E. coli NCM3722 delta-clpP, growth: N-lim chemostat, doubling time 6 h
[3] = E. coli NCM3722 delta-hslV, growth: N-lim chemostat, doubling time 6 h
[4] = E. coli NCM3722 delta-lon, growth: N-lim chemostat, doubling time 6 h
[5] = E. coli NCM3722 delta-smpB, growth: N-lim chemostat, doubling time 6 h
[6] = wild type E. coli NCM3722, growth: C-lim chemostat, doubling time 3 h
[7] = wild type E. coli NCM3722, growth: C-lim chemostat, doubling time 6 h
[8] = wild type E. coli NCM3722, growth: C-lim chemostat, doubling time 12 h
[9] = wild type E. coli NCM3722, growth: N-lim chemostat, doubling time 6 h
[10] = wild type E. coli NCM3722, growth: N-lim chemostat, doubling time 12 h
[11] = wild type E. coli NCM3722, growth: P-lim chemostat, doubling time 6 h
[12] = wild type E. coli NCM3722, growth: P-lim chemostat, doubling time 12 h

Sequence | total protein half-life in vivo [1] [h] | total protein half-life in vivo [2] [h] | total protein half-life in vivo [3] [h] | total protein half-life in vivo [4] [h] | total protein half-life in vivo [5] [h] | total protein half-life in vivo [6] [h] | total protein half-life in vivo [7] [h] | total protein half-life in vivo [8] [h] | total protein half-life in vivo [9] [h] | total protein half-life in vivo [10] [h] | total protein half-life in vivo [11] [h] | total protein half-life in vivo [12] [h]
MIFTLRPYQQEAVDATLNHFRRHKTPAVIVLPTGAGKSLVIAELARLARGRVLVLAHVKELVAQNHAKYQALGLEADIFAAGLKRKESHGKVVFGSVQSVARNLDAFQGEFSLLIVDECHRIGDDEESQYQQILTHLTKVNPHLRLLGLTATPFRLGKGWIYQFHYHGMVRGDEKALFRDCIYELPLRYMIKHGYLTPPERLDMPVVQYDFSRLQAQSNGLFSEADLNRELKKQQRITPHIISQIMEFAATRKGVMIFAATVEHAKEIVGLLPAEDAALITGDTPGAERDVLIENFKAQRFRYLVNVAVLTTGFDAPHVDLIAILRPTESVSLYQQIVGRGLRLAPGKTDCLILDYAGNPHDLYAPEVGTPKGKSDNVPVQVFCPACGFANTFWGKTTADGTLIEHFGRRCQGWFEDDDGHREQCDFRFRFKNCPQCNAENDIAARRCRECDTVLVDPDDMLKAALRLKDALVLRCSGMSLQHGHDEKGEWLKITYYDEDGADVSERFRLQTPAQRTAFEQLFIRPHTRTPGIPLRWITAADILAQQALLRHPDFVVARMKGQYWQVREKVFDYEGRFRLAHELRG | 5.4 ± 0.095 | 4.39 ± 0.49 | 3.55 ± 0.12 | 3.9 ± 0.26 | 3.3 ± 0.36 | 2.79 ± 0.44 | 4.38 ± 0.35 | 7.46 ± 0.87 | 3.38 ± 0.3 | 5.32 ± 0.49 | 5.37 ± 0.26 | 10.1 ± 0.45
MNRFSKTQIYLHWITLLFVAITYAAMELRGWFPKGSSTYLLMRETHYNAGIFVWVLMFSRLIIKHRYSDPSIVPPPPAWQMKAASLMHIMLYITFLALPLLGIALMAYSGKSWSFLGFNVSPFVTPNSEIKALIKNIHETWANIGYFLIAAHAGAALFHHYIQKDNTLLRMMPRRK |  |  |  |  | 5.19 | 3.2 |  |  |  |  |  | > 16
MTDNTRLRIAMQKSGRLSDDSRELLARCGIKINLHTQRLIAMAENMPIDILRVRDDDIPGLVMDGVVDLGIIGENVLEEELLNRRAQGEDPRYFTLRRLDFGGCRLSLATPVDEAWDGPLSLNGKRIATSYPHLLKRYLDQKGISFKSCLLNGSVEVAPRAGLADAICDLVSTGATLEANGLREVEVIYRSKACLIQRDGEMEESKQQLIDKLLTRIQGVIQARESKYIMMHAPTERLDEVIALLPGAERPTILPLAGDQQRVAMHMVSSETLFWETMEKLKALGASSILVLPIEKMME | 3.9 ± 1 | 2.97 ± 0.12 | 3.093 ± 0.014 | 5.11 ± 1.9 | 3.38 ± 0.042 | 2.99 ± 0.52 | 4.94 ± 0.53 | 7.58 ± 0.31 | 3.29 ± 0.1 | 4.73 ± 0.14 | 5.32 ± 0.63 | 11.2 ± 0.66
MSEGWNIAVLGATGAVGEALLETLAERQFPVGEIYALARNESAGEQLRFGGKTITVQDAAEFDWTQAQLAFFVAGKEATAAWVEEATNSGCLVIDSSGLFALEPDVPLVVPEVNPFVLTDYRNRNVIAVPDSLTSQLLAALKPLIDQGGLSRISVTSLISASAQGKKAVDALAGQSAKLLNGIPIDEEDFFGRQLAFNMLPLLPDSEGSVREERRIVDEVRKILQDEGLMISASVVQAPVFYGHAQMVNFEALRPLAAEEARDAFVQGEDIVLSEENEFPTQVGDASGTPHLSVGCVRNDYGMPEQVQFWSVADNVRFGGALMAVKIAEKLVQEYLY | 5.37 ± 0.42 | 4.6 ± 0.02 | 4.6 ± 0.11 | 4.9 ± 0.73 | 4.57 ± 0.048 | 3.02 ± 0.082 | 5.614 ± 0.008 | 9.85 ± 0.24 | 5.14 ± 0.59 | 8.99 ± 1.9 | 6.16 ± 0.097 | 11.9 ± 0.28
MWSEYSLEVVDAVARNGSFSAAAQELHRVPSAVSYTVRQLEEWLAVPLFERRHRDVELTAAGAWFLKEGRSVVKKMQITRQQCQQIANGWRGQLAIAVDNIVRPERTRQMIVDFYRHFDDVELLVFQEVFNGVWDALSDGRVELAIGATRAIPVGGRYAFRDMGMLSWSCVVASHHPLALMDGPFSDDTLRNWPSLVREDTSRTLPKRITWLLDNQKRVVVPDWESSATCISAGLCIGMVPTHFAKPWLNEGKWVALELENPFPDSACCLTWQQNDMSPALTWLLEYLGDSETLNKEWLREPEETPATGD [P0ACR2] | 5.69 ± 0.2 | 5.02 ± 0.17 | 4.85 ± 1.3 |  | 4.6 ± 0.3 | 2.594 ± 0.0057 | > 8 | 10.5 ± 0.11 | 4.8 ± 0.11 | 8.76 ± 0.09 | 5.31 ± 0.39 | 8.51 ± 0.64
MSVIETATVPLAQQQADALLNVKDLRVTFSTPDGDVTAVNDLNFSLRAGETLGIVGESGSGKSQTAFALMGLLAANGRIGGSATFNGREILNLPEHELNKLRAEQISMIFQDPMTSLNPYMRVGEQLMEVLMLHKNMSKAEAFEESVRMLDAVKMPEARKRMKMYPHEFSGGMRQRVMIAMALLCRPKLLIADEPTTALDVTVQAQIMTLLNELKREFNTAIIMITHDLVVVAGICDKVLVMYAGRTMEYGNARDVFYQPVHPYSIGLLNAVPRLDAEGETMLTIPGNPPNLLRLPKGCPFQPRCPHAMEICSSAPPLEEFTPGRLRACFKPVEELL | 5.379 ± 0.026 | 5.7109 ± 0.0028 | 5.53 ± 0.098 | 4.81 ± 0.18 | 5.34 ± 0.22 | 2.84 ± 0.31 | 5.49 ± 0.35 | 11.4 ± 1.9 | 5.29 ± 0.21 | 11.4 ± 1.2 | 5.715 ± 0.02 | 11.6 ± 0.23
MLFTIQLIIILICLFYGARKGGIALGLLGGIGLVILVFVFHLQPGKPPVDVMLVIIAVVAASATLQASGGLDVMLQIAEKLLRRNPKYVSIVAPFVTCTLTILCGTGHVVYTILPIIYDVAIKNNIRPERPMAASSIGAQMGIIASPVSVAVVSLVAMLGNVTFDGRHLEFLDLLAITIPSTLIGILAIGIFSWFRGKDLDKDEEFQKFISVPENREYVYGDTATLLDKKLPKSNWLAMWIFLGAIAVVALLGADSDLRPSFGGKPLSMVLVIQMFMLLTGALIIILTKTNPASISKNEVFRSGMIAIVAVYGIAWMAETMFGAHMSEIQGVLGEMVKEYPWAYAIVLLLVSKFVNSQAAALAAIVPVALAIGVDPAYIVASAPACYGYYILPTYPSDLAAIQFDRSGTTHIGRFVINHSFILPGLIGVSVSCVFGWIFAAMYGFL [P0ABN9] | 7.71 | 5.98 ± 1.5 | 5.58 ± 0.66 |  |  |  |  |  | 6.04 ± 0.11 | 12.9 ± 1.5 |  | > 16
MKQPGEELQETLTELDDRAVVDYLIKNPEFFIRNARAVEAIRVPHPVRGTVSLVEWHMARARNHIHVLEENMALLMEQAIANEGLFYRLLYLQRSLTAASSLDDMLMRFHRWARDLGLAGASLRLFPDRWRLGAPSNHTHLALSRQSFEPLRIQRLGQEQHYLGPLNGPELLVVLPEAKAVGSVAMSMLGSDADLGVVLFTSRDASHYQQGQGTQLLHEIALMLPELLERWIERV | 5.46 ± 0.28 |  | 1.73 ± 0.75 | 1.21 ± 0.07 | 0.944 ± 0.016 | 1.4 ± 0.051 | 2.35 ± 0.43 | 2.74 ± 0.45 | 1.33 | 1.56 | 2.18 ± 0.26 | 3.12 ± 1
MITHISPLGSMDMLSQLEVDMLKRTASSDLYQLFRNCSLAVLNSGSLTDNSKELLSRFENFDINVLRRERGVKLELINPPEEAFVDGRIIRALQANLFAVLRDILFVYGQIHNTVRFPNLNLDNSVHITNLVFSILRNARALHVGEAPNMVVCWGGHSINENEYLYARRVGNQLGLRELNICTGCGPGAMEAPMKGAAVGHAQQRYKDSRFIGMTEPSIIAAEPPNPLVNELIIMPDIEKRLEAFVRIAHGIIIFPGGVGTAEELLYLLGILMNPANKDQVLPLILTGPKESADYFRVLDEFVVHTLGENARRHYRIIIDDAAEVARQMKKSMPLVKENRRDTGDAYSFNWSMRIAPDLQMPFEPSHENMANLKLYPDQPVEVLAADLRRAFSGIVAGNVKEVGIRAIEEFGPYKINGDKEIMRRMDDLLQGFVAQHRMKLPGSAYIPCYEICT [P0ADR8] | 5.75 ± 1.1 | 4.95 ± 0.11 | 5.02 ± 0.07 | 5.1 ± 0.26 | 4.58 ± 0.19 | 3.03 ± 0.13 | 6.01 ± 0.13 | 11.3 ± 0.31 | 5.07 ± 0.029 | 9.48 ± 0.11 | 5.93 ± 0.55 | 11.9 ± 0.48
MSDQQQPPVYKIALGIEYDGSKYYGWQRQNEVRSVQEKLEKALSQVANEPITVFCAGRTDAGVHGTGQVVHFETTALRKDAAWTLGVNANLPGDIAVRWVKTVPDDFHARFSATARRYRYIIYNHRLRPAVLSKGVTHFYEPLDAERMHRAAQCLLGENDFTSFRAVQCQSRTPWRNVMHINVTRHGPYVVVDIKANAFVHHMVRNIVGSLMEVGAHNQPESWIAELLAAKDRTLAAATAKAEGLYLVAVDYPDRYDLPKPPMGPLFLAD | 5.48 ± 0.18 | 4.85 ± 0.48 | 3.92 | 5.08 ± 0.086 | 5.64 ± 0.47 |  |  | 11.8 ± 2.3 | 5.31 ± 0.53 | 8.71 ± 1.2 | 5.81 ± 0.58 | 11.6 ± 0.43
MNGKLQSSDVKNETPYNIPLLINENVISSGISLISLWHTYADEHYRVIWPRDKKKPLIANSWVAVYTVQGCGKILLKNGEQITLHGNCIIFLKPMDIHSYHCEGLVWEQYWMEFTPTSMMDIPVGQQSVIYNGEIYNQELTEVAELITSPEAIKNNLAVAFLTKIIYQWICLMYADGKKDPQRRQIEKLIATLHASLQQRWSVADMAATIPCSEAWLRRLFLRYTGKTPKEYYLDARLDLALSLLKQQGNSVGEVADTLNFFDSFHFSKAFKHKFGYAPSAVLKNTDQHPTDASPHN | 5.49 ± 0.17 |  |  |  | 1.33 ± 0.21 |  |  |  |  |  |  | 
